Source: patent US5889153A, “Protein or polypeptide, method for producing the same and intermediate compound therefor” (Hisamitsu Pharmaceutical Co., Inc., priority 1994, dated 1999)
One block for each substance: values may come before it.

Key:
blood glucose = assay: pharmacological effect of modified insulin: blood glucose value after intravenous administration; format: in vivo; conditions: about 0.5 U intravenously, normal rat
Description: Then, at prescribed intervals of time, venous blood was sampled to measure the insulin concentration in blood and blood glucose value at each time point.

[1] = in-vivo behaviors of modified SOD: SOD concentration in blood after intravenous administration; parameters: species or system rat; conditions: about 5,000 U intravenously; for in-vivo behaviors (SOD concentration in blood): urethane-anesthetized rat or rat with ligated renal artery
Description: About 5,000 U p-nitrophenyl formate-activated polyethyleneglycol-monocholesterolether (compound C)-modified or non-modified SOD were intravenously administered to an urethane-anesthetized rat or a rat of which only the renal artery was ligated after urethane anesthesia. Then, at prescribed intervals of time, venous blood was sampled to measure the SOD concentration in blood at each time point.

acute gastric ulcer = assay: pharmacological effect of modified SOD: water immersion stress ulcerative model; format: in vivo; conditions: 10,000 U, rat, compared with non-modified SOD
Protocol: To a rat, 10,000 U p-nitrophenyl formate-activated polyethyleneglycol-monocholesterolether (compound C)-modified or non-modified SOD were administered. Then, an acute gastric ulcer was caused in accordance with the method for preparing a water immersion stress ulcerative model, and the effect inhibiting generation of ulcer at this point was investigated.

[2] = water-solubility of reactive PEG derivative; format: physicochemical; conditions: 0.025 mM Na2B4O7.10H2O, pH 9.2, given as the reason for insufficient modification
Protocol: After dissolving bovine-derived insulin (6.0 mg) in 0.025 mM Na2 B4 O7.10H2 O (pH: 9.2) in an amount of 200 ml, p-nitrophenyl formate-activated polyethyleneglycolmono-cholesterolether (compound A), N-succinimide-activated polyethyleneglycol-monocholesterolether (compound B), p-nitrophenyl formate-activated polyethyleneglycol-mono-cholesterolether (compound C), cyanulchloride-activated polyethyleneglycol-monocholesterolether (compound D), double-type cyanulchloride-activated polyethyleneglycol-monocholesterolether (compound E), and p-nitrophenyl formate-activated polyethyleneglycol-monocholosterolether (compound F) obtained in Example 1 were respectively added in an amount of 2.0 nmol, and the mixtures were stirred at the room temperature for five hours. The resultant mixtures were purified through gel filtration by the use of Sephadex G-75 (made by Pharmacia Company). The target fraction was desalted and concentrated through ultrafiltration (made by Pharmacia Company), thereby obtaining the target aqueous solution (1.8 mg/ml). In the case of p-nitrophenyl formate-activated polyethylene-glycol-monocholesterolether (compoundA), the target modification was insufficient. […] In the case of p-nitrophenyl formate-activated polyethyleneglycol-monocholesterolether (compound F) also, the chemical modification was not sufficient. This is considered to be due to stereo-hindrance.

Substance: insulin [non-modified insulin]
- pharmacological effect (blood glucose value) (blood glucose): identical pharmacological effects

Substance: modified SOD: bovine-derived Cu, Zn-SOD modified with p-nitrophenyl formate-activated polyethyleneglycol-monocholesterolether (compound C), Example 3
- glomerular filtration ([1]; rat): exempt from glomerular filtration
- half-life in blood ([1]; rat): extended
- in-vivo behaviors (SOD concentration in blood) [1]: largely improved
- effect inhibiting generation of ulcer (acute gastric ulcer): production of an ulcer is inhibited

- water-solubility [2]: low water-solubility
Substance: p-nitrophenyl formate-activated polyethylene-glycolmonocholesterolether [compound A]

Substance: non-modified SOD: bovine-derived Cu, Zn-SOD (Superoxide Dismutase), not modified
- in-vivo behaviors (SOD concentration in blood) [1]: clearly improved
